Laboratory results reported in patent US20210101970A1 (Pfizer, published 2021).
Blank lines part the entries; values can stand above or below the binder they belong to.

Legend:
human CXCR5 [1] = molecular target: T1, human CXCR5 (human, UniProt P32302 1-372); test: flow cytometry, human PBMC B cells
T1 construct: also called hCXCR5; C-X-C chemokine receptor type 5
T1 sequence: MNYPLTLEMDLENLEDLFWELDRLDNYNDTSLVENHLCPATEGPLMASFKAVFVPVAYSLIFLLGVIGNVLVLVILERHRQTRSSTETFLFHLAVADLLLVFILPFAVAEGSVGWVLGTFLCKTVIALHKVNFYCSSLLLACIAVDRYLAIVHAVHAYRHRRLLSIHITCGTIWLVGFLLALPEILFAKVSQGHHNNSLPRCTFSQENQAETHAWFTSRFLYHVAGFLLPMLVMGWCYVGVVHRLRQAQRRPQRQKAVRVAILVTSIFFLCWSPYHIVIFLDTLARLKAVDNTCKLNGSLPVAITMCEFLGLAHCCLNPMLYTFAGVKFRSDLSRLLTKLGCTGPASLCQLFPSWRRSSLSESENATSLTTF

rat CXCR5 ortholog = molecular target: T2, rat CXCR5 ortholog (rat, UniProt P34997 1-374); test: not described
T2 sequence (looked up): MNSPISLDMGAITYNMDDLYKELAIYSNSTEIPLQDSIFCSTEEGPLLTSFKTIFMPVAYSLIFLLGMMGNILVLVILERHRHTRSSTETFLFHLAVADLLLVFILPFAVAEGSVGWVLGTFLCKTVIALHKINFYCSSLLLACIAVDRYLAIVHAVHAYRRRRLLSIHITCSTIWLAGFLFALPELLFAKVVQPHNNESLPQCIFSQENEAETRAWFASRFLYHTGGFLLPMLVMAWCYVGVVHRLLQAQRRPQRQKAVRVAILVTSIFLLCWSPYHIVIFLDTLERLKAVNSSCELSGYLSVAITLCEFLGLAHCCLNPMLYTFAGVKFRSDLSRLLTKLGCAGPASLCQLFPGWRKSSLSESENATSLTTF

rabbit CXCR5 ortholog = molecular target: T3, rabbit CXCR5 ortholog (rabbit, UniProt G1TNG1 1-374); test: not described
T3 sequence: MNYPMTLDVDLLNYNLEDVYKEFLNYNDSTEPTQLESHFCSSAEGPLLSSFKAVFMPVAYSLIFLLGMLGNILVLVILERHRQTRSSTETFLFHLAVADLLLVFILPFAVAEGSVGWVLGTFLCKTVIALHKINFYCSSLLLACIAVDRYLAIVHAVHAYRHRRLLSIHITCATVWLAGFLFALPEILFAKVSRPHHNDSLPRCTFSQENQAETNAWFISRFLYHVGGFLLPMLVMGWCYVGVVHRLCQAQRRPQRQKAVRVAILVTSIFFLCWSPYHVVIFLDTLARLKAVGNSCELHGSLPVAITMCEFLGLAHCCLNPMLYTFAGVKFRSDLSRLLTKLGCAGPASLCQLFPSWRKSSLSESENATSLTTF

human CXCR5 [2] = molecular target: T1, human CXCR5; test: flow cytometry, B cells from human PBMCs (FIG. 5); afucosylated
human CXCR5 [3] = molecular target: T1, human CXCR5; test: flow cytometry, human tonsil Tfh cells
Description: Following centrifugation, red blood cell lysis was performed on the pellet using an ammonium chloride lysis buffer. Platelets were removed using a low speed centrifugation (200×g) for 10 minutes in Phosphate-Buffered Saline (PBS)/2% FBS/2 mM Ethylenediaminetetraacetic acid (EDTA). CD4+ T cells were purified out of the TMC mixture using an EasySep™ Human CD4+ T Cell Enrichment Kit, according to the manufacturer's instructions ([…] Technologies, Vancouver, BC, Canada).
Following isolation, PBMCs were plated at a density of 1.0×10⁵ cells per well and CD4+ TMCs were plated at a density of 2.0×10⁵ cells per well in isolation buffer (PBS containing 1% FBS and 1 mM EDTA) in 96 well U-bottom plates. The plates were then centrifuged at 1500 rpm for 5 minutes at room temperature. PBMCs and CD4+ TMCs were resuspended in Fluorescence-activated cell sorting (FACS) buffer (PBS containing 1% FBS) containing human crystallized fragment Fc block (2 μL per well; Biolegend) and 4-fold serial dilutions of the antibodies (11-point dilution series, beginning at 5000 ng/mL for PBMCs and 312.5 ng/mL for CD4+ TMCs) and incubated on ice for 2 hours. PBMCs and CD4+ TMCs were then washed with FACS buffer 3 times and resuspended in 50-100 μL of FACs buffer containing fluorescent-conjugated antibodies for staining lymphocyte subsets and a fluorescent-conjugated secondary antibody against human Ig to detect CXCR5 monoclonal antibodies (mAbs). After incubation for 30 minutes at 4° C., PBMCs and CD4+ TMCs were washed with FACS buffer 2 times and resuspended in 125 μL of 0.5% paraformaldehyde (PFA) in PBS. Plates were stored at 4° C. until analysis by flow cytometry (BD LSRFortessa™ Cell Analyzer, BD Biosciences, Franklin Lakes, N.J.).
The cell binding titration curves were generated by plotting the gMFI of the antigen binding population against the log of CXCR5 antibody concentration. EC₅₀ values were determined using GraphPad Prism® (version 6.0, GraphPad Software, Inc, San Diego, Calif.) nonlinear-regression curve fits and a sigmoidal log of agonist dose-response model, according to the following equation

human CXCR5 [4] = molecular target: T1, human CXCR5; test: cell-based or functional assay
human CXCR5 [5] = molecular target: T1, human CXCR5; test: cell-based or functional assay; remark: listed apart in the source
cynomolgus monkey CXCR5 = molecular target: T4, cynomolgus monkey CXCR5 (cynomolgus monkey, UniProt P32302 1-372 (human entry)); test: flow cytometry on cynoCXCR5-300.19 cells, fucosylated chimeric antibody
T4 construct: also called cynoCXCR5; NHP CXCR5
T4 chain: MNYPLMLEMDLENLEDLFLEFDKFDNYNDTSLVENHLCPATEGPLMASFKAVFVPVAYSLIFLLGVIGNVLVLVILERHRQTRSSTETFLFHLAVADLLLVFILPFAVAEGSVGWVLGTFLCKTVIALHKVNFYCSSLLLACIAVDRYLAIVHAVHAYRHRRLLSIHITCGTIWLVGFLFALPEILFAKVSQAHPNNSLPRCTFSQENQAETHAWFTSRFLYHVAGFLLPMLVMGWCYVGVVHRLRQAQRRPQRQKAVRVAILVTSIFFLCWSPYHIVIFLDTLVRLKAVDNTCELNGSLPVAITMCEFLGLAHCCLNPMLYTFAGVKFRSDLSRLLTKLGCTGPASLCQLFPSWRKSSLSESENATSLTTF

fold higher affinity than 2C9 (human CXCR5 [1]): ~10 fold
fold higher affinity than 11A7 (human CXCR5 [1]): ~100 fold
binding result (rat CXCR5 ortholog): no binding
binding result (rabbit CXCR5 ortholog): no binding
EC50 (human CXCR5 [2]): 0.0119 nM
EC50 (human CXCR5 [3]): 0.0106 nM
EC50, functional antagonism (cAMP assay) (human CXCR5 [4]): 0.961 nM
B1: Afucosyl humanized 11G2 154/155 (antibody, human IgG1, kappa, V domains shown)
VH: EVQLVESGGGLVQPGGSLRLSCAASGFTFTDFYMSWVRQAPGKGLEWVGFIRNKANGYTTEYSASVKGRFTISRDNAKNSLYLQMNSLRAEDTAVYYCARVYGSTLHYWGQGTLVTVSS
VL: DIQMTQSPSSLSASVGDRVTITCRASESVEYHGTSLMHWYQQKPGKAPKLLIYAASNVESGVPSRFSGSGSGTDFTLTISSLQPEDFATYYCQQSRKVPWTFGQGTKVEIKR
modifications: afucosylated Fc glycan (Asn297)
notes: also called afucosyl h11G2 XC154/XC155; afucosylated h11G2 VL XC154/VH XC155

% Inhibition CXCL13 (human CXCR5 [5]): 114%
EC50, stimulation of CXCL13-inhibited cAMP production (human CXCR5 [5]): 0.793 nM
B2: 2C9 (reference antibody) (antibody, human IgG1, kappa, V domains shown)
VH: EVQLVESGGGLVKPGGSLRLSCAASGFTFSTNAMNWVRQAPGKGLERVARIRSKSNNYATYYADSVKDRFTISRDDSKNTLYLQMNSLKTEDTAVYYCVTMIPFAYWGQGTLVTVSS
VL: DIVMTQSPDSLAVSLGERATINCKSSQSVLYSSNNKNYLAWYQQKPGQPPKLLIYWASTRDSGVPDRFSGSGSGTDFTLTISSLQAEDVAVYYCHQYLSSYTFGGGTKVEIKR
notes: fucosylated

EC50 (cynomolgus monkey CXCR5): 0.0242 nM
EC50 (human CXCR5 [3]): 0.00846 nM
B3: Chimeric 11G2 (antibody, human IgG1, kappa, V domains shown)
VH: EVKLVESGGGLVQPGGSLRLSCATSGFTFTDFYMSWVRQPPGRALEWLGFIRNKANGYTTEYSASVKGRFTISRDNSQSILYLQMNTLRAGDSATYYCVRVYGSTLHYWGQGTILTVSS
VL: DVVVTQSPDSLAVSLGQRATISCRASESVEYHGTSLMHWYQQKPGQPPKLLIYAASNVESGVPARFSGSGSGTDFSLNIHPVEEGDIAMYFCQQSRKVPWTFGGGTKLEIKR
notes: mouse V regions on human IgG1/kappa; also called 11G2 (chimeric)
